Data from patent US20050069542A1 (Human Genome Sciences, published 2005).
Positions count from the first letter of the chain named. One block for each binder: values may come before it.

Target: T1, flag-tagged soluble TL3 (amino acids 105-251 of SEQ ID NO:234) (Homo sapiens (Human), UniProt O75888 105-250)
T1 construct: Heterologous flag-tagged control protein, immobilized in the ELISA; also called flagged tagged TL-3; not shown: Flag tag
T1 sequence: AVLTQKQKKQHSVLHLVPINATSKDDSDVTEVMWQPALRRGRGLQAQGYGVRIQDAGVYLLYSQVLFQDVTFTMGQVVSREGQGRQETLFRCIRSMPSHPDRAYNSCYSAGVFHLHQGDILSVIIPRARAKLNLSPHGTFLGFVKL
Assay: phage ELISA on immobilized flag-tagged soluble TL3
Method: The individual phage isolates in the panel of phage, each phage expressing a unique scFv that bound to flag-tagged GMAD, were tested to ensure specificity for GMAD using an ELISA assay. The scFvs were tested in an ELISA for their ability to bind a heterologous flag-tagged protein, in this case—immobilized soluble TL3 (amino acids 105-251 of SEQ ID NO:234, GenBank Accesion Number NP_{—}003799, also described in International Patent Application Publication Number WO97/33902 and WO2001/96528 which are herein incorporated by reference in their entireties).

B1: GMBC603 (scFv)
scFv: QVQLVQSGGGVVRPGGSLRLSCAASGFTFDDYGMSWVRQAPGKGLEWVSGINWNGGSTGYADSVKGRFTISRDNAKNSLYLQMNSLRAEDTALYYCAKDLNYDFWSGSGMDVWGRGTLVTVSSGGGGSGGGGSGGGGSQSVLTQPASVSGSPGQSITISCTGTSSDVGGYNYVSWYQQHPGKAPKLMIYEGSKRPSGVSNRFSGSKSGNTASLTISGLQAEDEADYYCSSYTTRSTRVFGGGTKLTVLG
binding result: no binding

B2: GMBC618 (scFv)
scFv: EVQLVQSGGGLVKPGGSLRLSCAASGFKFDDAWMNWVRQAPGKGLEWVGRIKSKRSGGTIDYAAPVKDRFTISRDDSKNTLYLQMNSLRTEDTALYYCTWDWDFYYGMNVWGRGTLVTVSSGGGGSGGGGSGGGGSQSVLTQPPSASGTPGQRVTISCSGSSSNIGSNTVNWYQRLPGAAPQLLIYNNDQRPSGIPDRFSGSKSGTSGSLVISGLQSEDEADYYCASWDDSLNGRVFGGGTKLTVLG
binding result: no binding

B3: GMBC692 (scFv)
scFv: EVQLVQSGGGLVKPGGSLRLSCAASGFTFSDAWMNWVRQAPGKGLEWVGRIKSKGSGGTIDYAAPVKDRFTISRDDSKNTLYLQMNSLKTEDTALYYCTWDWDFYYGMNVWGRGTLVTVSSGGGGSGGGGSGGGGSQSVLTQPASVSGSPGQSITISCTGTSSDVGGYNYVSWYQQHPGKAPKLMIYEGSKRPSGVSNRFSGSKSGNTASLTISGLQAEDEADYYCSSYTTRSTRVFGGGTKLTVLG
binding result: no binding

B4: GMBC727 (scFv)
scFv: EVQLVESGGDTVKPGGSLRLSCAGSGFTFSDAWMNWVRQAPGKGLEWVGRMKSKGSGGTRDYAAPVNGRFTISRDDSKNTLYLQMNSLNTEDTGVYYCTWDWDFYYGMNVWGRGTLVTVSSGGGGSGGGGSGGGGSQSVLTQPASVSGSPGQSITISCTGTSSDVGGYNYVSWYQQHPGKAPKLMIYEGSKRPSGVSNRFSGSKSGNTASLTISGLQAEDEADYYCSSYTTRSTRVFGGGTKLTVLG
binding result: no binding

B5: GMBC684 (scFv)
scFv: B3 scFv with E1Q, T28K, R113Q, L116P, V139A
binding result: no binding

B6: GMBC605 (scFv)
scFv: B3 scFv with E1Q, A23E, A24T, T28K
binding result: no binding

B7: GMBC649 (scFv)
scFv: B3 scFv with E1Q
binding result: no binding

B8: GMBC679 (scFv)
scFv: QVQLVESGGGLVKPGGSLRLSCAASGFTFSDAWMNWVRQAPGKGLEWVGRIKSKGSGGTTDYAAPVKDRFTISRDDSENTLYLQMNSLKTEDTAVYYCTWDHSYYYDMAVWGRGTLVTVSSGGGGSGGGGSGGGGSQSVLTQPASVSGSPGQSITISCTGTSSDVGGYNYVSWYQQHPGKAPKLVIYEGSKRPSGVSNRFSGSKSGNTASLTISGLQAEDEADYYCSSYTTRSTRVFGGGTKLTVLG
binding result: no binding

B9: GMBC667 (scFv)
scFv: B3 scFv with E1Q, V5Q, Q6E, A24G, T28P, T71R, K89N, T90I, R113Q, L116T
binding result: no binding

B10: GMBC645 (scFv)
scFv: B3 scFv with Q6E, A24G, T28K, D61E, T71I, N79D, K242E
binding result: no binding

B11: GMBC616 (scFv)
scFv: B8 scFv with Q1E, A144P, S145F, V185M
binding result: no binding

B12: GMBC676 (scFv)
scFv: B3 scFv with K13Q, D31H, G55A, Q84H, L116M, S153P
binding result: no binding

B13: GMBC693 (scFv)
scFv: B3 scFv with E1Q, Q6E, R113K, N207D
binding result: no binding

B14: GMBC625 (scFv)
scFv: B3 scFv with G55R, N79D, L81M, R113Q, L116M, S201F
binding result: no binding

B15: GMBC607 (scFv)
scFv: B3 scFv with T80M, Q84E, R113Q, L116M, G167D
binding result: no binding

B16: GMBC686 (scFv)
scFv: B3 scFv with R113Q, L116T
binding result: no binding

Continued, values first:

binding result: no binding
B17: GMBC614 (scFv)
scFv: B3 scFv with L116M

binding result: no binding
B18: GMBC634 (scFv)
scFv: B3 scFv with E1Q, R113Q

binding result: no binding
B19: GMBC690 (scFv)
scFv: B3 scFv with L11V, K13Q, G16R, N169I, K180R

binding result: no binding
B20: GMBC670 (scFv)
scFv: B3 scFv with Q6E, S7T, A23V, T71I, M85V, R113Q

binding result: no binding
B21: GMBC615 (scFv)
scFv: B3 scFv with Q6E, T28K, R113K, T118A

binding result: no binding
B22: GMBC658 (scFv)
scFv: B3 scFv with L116T

binding result: no binding
B23: GMBC620 (scFv)
scFv: B3 scFv with Q6E, L116M

binding result: no binding
B24: GMBC647 (scFv)
scFv: B3 scFv with Q6E, R113Q, L116T

binding result: no binding
B25: GMBC654 (scFv)
scFv: B3 scFv with Q6E, S7T, K13E, G55R, T90I, R113K, L116T

binding result: no binding
B26: GMBC651 (scFv)
scFv: B3 scFv with Q6E, K13Q, L116M

binding result: no binding
B27: GMBC672 (scFv)
scFv: B3 scFv with E1Q, R113Q, G239E

binding result: no binding
B28: GMBC664 (scFv)
scFv: B3 scFv with Q6E, S7T, G10A, G112S, L116M

binding result: no binding
B29: GMBC660 (scFv)
scFv: B3 scFv with T28I, R113Q, L116P

binding result: no binding
B30: GMBC617 (scFv)
scFv: EVQLVETGGGLVQPGGSLRLSCAASGFTVSSNYMSWVRQAPGKGLEWVSVIYSGGSTYYADSVKGRFTISRHNSKNTLYLQMNSLRAEDTAVYYCARGLWFGELLYWGQGTLVTVSSGGGGSGGGGSGGGGSQSALTQPASVSGSRGQSITISCTGTTGDVGGYDYVSWYQQHPGKAPKLLIYGNSNRPSGVPDRFSASKSGNTASLTISGLQAEDEADYFCSTYAPPGIIMFGGGTKLTVLG

binding result: no binding
B31: GMBC613 (scFv)
scFv: KVQLVESGGGLVQPGGSLRLSCAASGFTISSHWMSWVRQAPGKGLEWVASIKQDGREKHFVDSVKGRFSISRDNAKNSLYLQMNSLRTEDTAVYYCARETYGGYYYYFMDVWGKGTLVTVSSGGGGSGGGGSGGGGSSELTQDPAVSVALGQTVRITCQGDSLRSYYASWYQQKPGQAPVLVIYGKNNRPSGIPDRFSGSSSGNTASLTITGAQAEDEADYYCNSRDSSGNHVVFGGGTKLTVLG
